# In article PMC4912631, “Structure of the exportin Xpo4 in complex with RanGTP and the hypusine-containing translation factor eIF5A” (Nature Communications, 2016):
# B1: Xpo4 wild type (natural protein)
# chain: not shown
# Experiments:
# Details in all cases: both partners purified
# Xpo4 wild type [1] = biological target: B1; assay: SEC; complexes of Xpo4 variants, RanGTP and a 1.3-molar excess of hypusine-containing eIF5A, retrieved on anti-ZZ beads via tagged RanGTP, eluted by bdSENP1, then Superdex 200 16/60 in 15 mM Tris/HCl pH 7.7, 18 mM NaCl, 2 mM Mg(OAc)2, 2 mM DTT; peak fractions on SDS-PAGE
# Sequence of Xpo4 wild type (Q9ESJ0 whole entry, the tested form may be a part): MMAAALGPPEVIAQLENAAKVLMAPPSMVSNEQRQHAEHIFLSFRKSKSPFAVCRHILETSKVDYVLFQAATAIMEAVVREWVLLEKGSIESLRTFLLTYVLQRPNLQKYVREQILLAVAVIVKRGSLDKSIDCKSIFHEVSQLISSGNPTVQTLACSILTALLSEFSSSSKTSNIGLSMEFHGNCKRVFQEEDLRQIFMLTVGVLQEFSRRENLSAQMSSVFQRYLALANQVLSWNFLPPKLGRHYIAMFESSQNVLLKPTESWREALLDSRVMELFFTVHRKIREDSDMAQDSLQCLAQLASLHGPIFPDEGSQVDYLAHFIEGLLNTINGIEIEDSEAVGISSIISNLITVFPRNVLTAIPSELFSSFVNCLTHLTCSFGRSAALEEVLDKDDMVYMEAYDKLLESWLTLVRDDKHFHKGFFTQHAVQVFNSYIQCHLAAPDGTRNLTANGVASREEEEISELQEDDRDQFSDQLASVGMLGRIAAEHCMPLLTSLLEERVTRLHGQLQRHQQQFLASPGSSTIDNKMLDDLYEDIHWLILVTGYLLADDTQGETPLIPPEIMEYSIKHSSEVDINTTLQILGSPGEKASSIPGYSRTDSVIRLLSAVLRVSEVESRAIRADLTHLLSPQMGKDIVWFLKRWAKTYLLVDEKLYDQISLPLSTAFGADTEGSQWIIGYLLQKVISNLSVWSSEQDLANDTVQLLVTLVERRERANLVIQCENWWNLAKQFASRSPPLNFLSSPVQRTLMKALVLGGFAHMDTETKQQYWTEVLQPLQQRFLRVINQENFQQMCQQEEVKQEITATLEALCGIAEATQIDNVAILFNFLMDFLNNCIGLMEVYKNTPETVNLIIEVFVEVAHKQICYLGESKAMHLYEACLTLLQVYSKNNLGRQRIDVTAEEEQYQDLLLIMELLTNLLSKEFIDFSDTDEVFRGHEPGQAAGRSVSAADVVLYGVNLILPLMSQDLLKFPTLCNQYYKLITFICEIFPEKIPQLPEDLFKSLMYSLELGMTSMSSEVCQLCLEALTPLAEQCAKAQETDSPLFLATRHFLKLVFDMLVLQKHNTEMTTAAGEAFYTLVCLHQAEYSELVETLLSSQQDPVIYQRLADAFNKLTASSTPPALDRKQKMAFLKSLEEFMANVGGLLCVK
# Xpo4 ΔLoopN&C = biological target: T1, Xpo4 ΔLoopN&C ( (mammalian), UniProt Q9ESJ0 1-1151, Δ241–260 | Δ931–948); assay: as above
# T1 construct: Xpo4 (exportin 4), mammalian, with loops 241-260 and 931-948 deleted; 1,113 residues printed; Crystallised form; 1,052 of 1,113 residues are modelled in PDB 5DLQ; also called ΔLoopN&C Xpo4 variant; Xpo4 loop deletion mutant; source: E. coli Top10 F', purified (Ni(II) chelate, bdSENP1 elution, Superdex 200, Mono Q); selenomethionine form from BL21; not shown: His14, N-terminal, cleaved; bdSUMO, …
# T1 sequence (Q9ESJ0 other isoform, or with tags, fused parts or gaps Δ241–260 | Δ931–948 | Δ241–260 | Δ931–948 | mutant): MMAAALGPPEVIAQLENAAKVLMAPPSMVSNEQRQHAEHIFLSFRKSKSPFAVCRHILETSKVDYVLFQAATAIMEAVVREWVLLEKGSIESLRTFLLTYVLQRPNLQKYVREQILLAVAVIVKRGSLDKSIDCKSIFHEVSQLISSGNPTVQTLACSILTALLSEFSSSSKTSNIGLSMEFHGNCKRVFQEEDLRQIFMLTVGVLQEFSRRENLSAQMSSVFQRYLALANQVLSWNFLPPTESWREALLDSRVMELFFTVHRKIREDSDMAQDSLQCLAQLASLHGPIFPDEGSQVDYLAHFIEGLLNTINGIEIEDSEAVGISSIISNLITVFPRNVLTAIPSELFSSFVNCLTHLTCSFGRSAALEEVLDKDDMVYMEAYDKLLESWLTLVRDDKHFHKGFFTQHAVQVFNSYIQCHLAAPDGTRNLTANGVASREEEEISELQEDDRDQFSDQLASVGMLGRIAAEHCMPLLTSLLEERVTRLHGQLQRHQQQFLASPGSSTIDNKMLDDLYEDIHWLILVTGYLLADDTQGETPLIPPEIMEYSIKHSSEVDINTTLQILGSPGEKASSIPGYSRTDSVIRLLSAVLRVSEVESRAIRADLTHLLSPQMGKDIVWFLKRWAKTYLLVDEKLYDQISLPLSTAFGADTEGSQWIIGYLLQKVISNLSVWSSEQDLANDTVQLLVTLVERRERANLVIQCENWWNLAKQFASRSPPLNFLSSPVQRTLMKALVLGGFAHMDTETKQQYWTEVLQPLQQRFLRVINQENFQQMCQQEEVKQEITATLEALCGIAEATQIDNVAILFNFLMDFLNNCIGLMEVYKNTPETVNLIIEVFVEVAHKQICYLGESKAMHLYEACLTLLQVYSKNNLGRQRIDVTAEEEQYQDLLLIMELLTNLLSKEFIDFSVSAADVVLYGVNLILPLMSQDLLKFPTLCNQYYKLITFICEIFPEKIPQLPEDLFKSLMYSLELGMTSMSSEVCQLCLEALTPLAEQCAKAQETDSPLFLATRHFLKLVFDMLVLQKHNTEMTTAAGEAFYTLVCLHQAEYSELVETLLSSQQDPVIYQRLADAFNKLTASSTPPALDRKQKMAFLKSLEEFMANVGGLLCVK
# Xpo4 wild type [2] = biological target: B1; assay: pull-down; export complexes formed with Xpo4, eIF5A (full-length or truncated) and ZZ-bdNEDD8-tagged RanGTP; immobilised via tagged Ran; eluted by bdNEDP1 protease; SDS-PAGE, Coomassie
# [3] = biological target: RanQ69L (aa 5–180), GTP-bound, untagged ( (mammalian), UniProt P62826 5-180, Q69L); assay: SEC; complexes of Xpo4 variants, RanGTP and a 1.3-molar excess of hypusine-containing eIF5A, retrieved on anti-ZZ beads via tagged RanGTP, eluted by bdSENP1, then Superdex 200 16/60 in 15 mM Tris/HCl pH 7.7, 18 mM NaCl, 2 mM Mg(OAc)2, 2 mM DTT; peak fractions on SDS-PAGE
# ZZ-bdNEDD8-tagged RanGTP = ZZ-bdNEDD8-tagged RanGTP ( (mammalian), UniProt P62826 5-180, Q69L); assay: pull-down; 1 μM Xpo4 wild type or mutants, 0.75 μM ZZ-bdNEDD8-tagged RanGTP, 1.25 μM hypusinated eIF5A, 100 mM NaCl buffer; retrieved via tagged Ran; eluted by bdNEDP1 protease; SDS-PAGE, Coomassie
binding result (ZZ-bdNEDD8-tagged RanGTP),Binder,further results
–,"eIF5A truncated (14 N-terminal residues deleted), hypusinated (domain or fragment, hypusine (N-ɛ-(4-amino-2-hydroxybutyl)-lysine) at 50) not shown",binding result (Xpo4 wild type [1]): binds; binding result (Xpo4 ΔLoopN&C): binds
–,"eIF5A, full-length, hypusinated (natural protein, hypusine (N-ɛ-(4-amino-2-hydroxybutyl)-lysine) at 50, eIF5A, mammalian; lysine 50 in human numbering carries the hypusine; In the nuclear export assay this protein carried an Alexa568 label; also called eIF5A(Hpu); hypusinated eIF5A; source: E. coli NEB Express, purified; hypusinated in vitro by recombinant deoxyhypusine synthase and deoxyhypusine hydroxylase; eluted from anti-ZZ matrix by bdSENP1; cation exchange; not shown: His14, N-terminal, …) not shown",binding result (Xpo4 wild type [2]): binds
binds,B1,binding result [3]: binds
binds,Xpo4 S631A (natural protein) not shown,–
binds,Xpo4 D470N (natural protein) not shown,–
binds,Xpo4 E537Q (natural protein) not shown,–
